Results as given in article PMC11594144.

Columns and labels:
[1] = target: Vip3Aa64 protoxin, wild type (Bacillus thuringiensis); assay: AUC
[2] = target: Vip3Aa64 protoxin, wild type (Bacillus thuringiensis); assay: mass photometry

Work on “Vip3Aa64 protoxin, wild type (natural protein)” yielded a stoichiometry N [1] of 4 and a stoichiometry N [2] of 4.
